Reference: PMC11529724
Positions count from the first letter of the chain named. In names and notes the source's numbering stands. Like-named read-outs stand apart in the source and are kept apart here. Each block holds one binder with its values, some of them ahead of it.

Key:
[1] = target: microtubules assembled from porcine brain tubulin (porcine) (UniProt P02550)
[2] = target: microtubules assembled from porcine brain tubulin (porcine) (UniProt P02550); remark: listed apart in the source
[3] = target: unmodified human microtubules (tubulin from tsA201 cells) (human (endogenous in tsA201)) (UniProt P68363); test: TIRF microscopy binding assay

Sequence of microtubules assembled from porcine brain tubulin (porcine) (P02550 whole entry, chain 1 of 2): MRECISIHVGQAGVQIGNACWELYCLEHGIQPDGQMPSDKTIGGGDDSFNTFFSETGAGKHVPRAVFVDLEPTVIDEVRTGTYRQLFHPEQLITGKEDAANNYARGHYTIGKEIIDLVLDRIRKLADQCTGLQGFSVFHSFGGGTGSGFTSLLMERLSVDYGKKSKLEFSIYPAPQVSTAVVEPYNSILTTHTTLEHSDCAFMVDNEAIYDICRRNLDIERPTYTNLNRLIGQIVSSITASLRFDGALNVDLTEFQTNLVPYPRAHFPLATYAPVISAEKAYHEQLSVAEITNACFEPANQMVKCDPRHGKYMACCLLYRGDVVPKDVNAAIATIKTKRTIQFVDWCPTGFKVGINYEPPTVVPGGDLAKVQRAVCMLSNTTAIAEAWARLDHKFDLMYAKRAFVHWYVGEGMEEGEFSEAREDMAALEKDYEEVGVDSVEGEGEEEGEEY
Sequence of microtubules assembled from porcine brain tubulin (porcine) (P02554 whole entry, chain 2 of 2, further chain): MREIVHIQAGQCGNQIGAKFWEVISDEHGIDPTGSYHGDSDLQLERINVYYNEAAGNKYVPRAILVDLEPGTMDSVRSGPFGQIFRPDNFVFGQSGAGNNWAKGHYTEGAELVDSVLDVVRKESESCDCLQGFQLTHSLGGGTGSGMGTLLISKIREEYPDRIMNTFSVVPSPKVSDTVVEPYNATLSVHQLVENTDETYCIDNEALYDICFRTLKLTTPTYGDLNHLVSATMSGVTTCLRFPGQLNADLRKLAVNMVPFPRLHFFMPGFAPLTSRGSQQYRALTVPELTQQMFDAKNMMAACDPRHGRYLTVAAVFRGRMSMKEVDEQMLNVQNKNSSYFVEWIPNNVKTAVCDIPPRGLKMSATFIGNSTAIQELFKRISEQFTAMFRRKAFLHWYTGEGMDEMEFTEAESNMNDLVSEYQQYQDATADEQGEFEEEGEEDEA

B2: TTLL6 F425 to alanine (enzyme)
chain: GKKKRKKKRLVINLSNCRYDSVRRAAQQYGLREAGDNDDWTLYWTDYSVSLERVMEMKSYQKINHFPGMSEICRKDLLARNMSRMLKLFPKDFHFFPRTWCLPADWGDLQTYSRTRKNKTYICKPDSGCQGRGIFITRSVKEIKPGEDMICQLYISKPFIIDGFKFDLRVYVLVTSCDPLRVFVYNEGLARFATTSYSHPNLDNLDEICMHLTNYSINKHSSNFVQDAFSGSKRKLSTFNSYMKTHGYDVEQIWRGIEDVIIKTLISAHPVIKHNYHTCFPSHTLNSACFEILGFDILLDRKLKPWLLEVNHSPSFSTDSKLDKEVKDSLLYDALVLINLGNCDKKKVLEEERQRGRFLQQCPNREIRLEEVKGAQAMRLQKTEEYEKKNCGGFRLIYPGLNLEKYDKFFQDNSSLFQNTVASRARELYARQLIQELRQKQEKKVFLKKARK
glutamylation activity with taxol-stabilized MTs, increase against WT [2]: 59 % increase

B4: TTLL6 K490 to glutamate (enzyme)
chain: B2 chain with A375F, K440E
glutamylation activity with taxol-stabilized MTs, normalized to WT [1]: < 20 % of WT

B5: TTLL6 Leu409 to alanine (enzyme)
chain: B2 chain with L359A, A375F
glutamylation activity with taxol-stabilized MTs, normalized to WT [2]: < 10 % of WT

B6: TTLL6 Val422 to alanine (enzyme)
chain: B2 chain with V372A, A375F
glutamylation activity with taxol-stabilized MTs, normalized to WT [2]: < 10 % of WT

The next lines start with the values.

glutamylation activity with taxol-stabilized MTs, normalized to WT [1]: 35 % of WT
B1: TTLL6 Y479A (enzyme)
chain: B2 chain with A375F, Y429A

Kd [3]: 210 nM
B3: Atto488-labeled TTLL6 (enzyme)
chain: B2 chain with A375F
modifications: Atto488 on the N-terminus, through the synthetic peptide NH2-(Atto488)-… ligated with sortase

glutamylation activity with taxol-stabilized MTs, increase against WT [2]: 70 % increase
B7: TTLL6 F408 to alanine (enzyme)
chain: B2 chain with F358A, A375F
